Assay [1] concerns the target T1, N165 (from amino acid 165 to the C-terminus) (human, UniProt Q9Y2J8 165-665).
T1 construct: also called N165 splice variant
As to the kind of experiment: western blotting. The procedure:
(§1) Different samples were loaded in gels (same procedure as SDS-PAGE) along with a pre-stained marker. […] The membrane was blocked in wash buffer and sliced into strips. Antibody culture supernatant (2 mL) was added 1:1 in diluting buffer and incubated 0/N at 4° C. HRP-conjugated rabbit anti mouse IgG was added 1:3000 followed by incubation 1 h/RT. Finally, the strips were washed, incubated 10 min in acetate buffer (50 mM CH3COOH, 33.75 mM NaOH, pH 5.0) and stained in carbazole staining solution (0.04% 3-amino-9-ethylcarbazole and 0.015% H2O2) in acetate buffer. Antibodies with affinity against the target protein were observed as red bands, and the approximate size could be held against the marker loaded on the gel.
(§2) Different splice variants of PAD2 were evaluated by western blotting.

Assay [2] deals with N343 (from amino acid 343 to the C-terminus) (human, UniProt Q9Y2J8 343-665). In words: western blotting. The method, then: as §1, §2
(Immunoblotting shows a protein as a band on a membrane.)

For assay [3], the target named is T2, human recombinant PAD4 (hrPAD4) (human, UniProt Q9UM07 1-663).
T2 construct: Recombinant, provided by Ger Pruijn; also called hPAD4; human PAD4
In words: indirect ELISA, hrPAD4 coat 50 ng/mL.

The target in assay [4] is T3, Peptidylarginine Deiminase isolated from rabbit skeletal muscle (rPAD2) (rabbit, UniProt P20717 1-665 (rat entry), limits assumed).
T3 construct: Bought (Sigma-Aldrich), isolated from rabbit skeletal muscle; also called Rabbit PAD2; rabbit PAD2
T3 chain: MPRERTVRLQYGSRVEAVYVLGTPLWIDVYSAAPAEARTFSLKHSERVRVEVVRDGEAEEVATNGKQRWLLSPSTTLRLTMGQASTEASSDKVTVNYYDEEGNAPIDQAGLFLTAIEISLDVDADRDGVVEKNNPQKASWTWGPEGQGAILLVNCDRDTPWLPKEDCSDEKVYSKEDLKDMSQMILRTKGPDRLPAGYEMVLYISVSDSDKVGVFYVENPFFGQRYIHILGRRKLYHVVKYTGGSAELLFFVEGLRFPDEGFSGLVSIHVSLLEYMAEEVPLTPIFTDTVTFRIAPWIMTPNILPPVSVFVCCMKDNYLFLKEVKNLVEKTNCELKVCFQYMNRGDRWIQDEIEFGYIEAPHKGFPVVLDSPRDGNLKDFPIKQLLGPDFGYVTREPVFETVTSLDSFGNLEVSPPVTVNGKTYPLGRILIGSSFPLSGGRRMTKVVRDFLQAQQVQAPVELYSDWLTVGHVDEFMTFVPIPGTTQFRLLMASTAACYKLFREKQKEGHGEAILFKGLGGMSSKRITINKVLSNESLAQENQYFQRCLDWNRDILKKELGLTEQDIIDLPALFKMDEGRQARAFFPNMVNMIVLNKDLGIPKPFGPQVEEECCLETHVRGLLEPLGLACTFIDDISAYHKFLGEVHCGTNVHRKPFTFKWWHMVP
In words: western blotting, rPAD2. The method, then: FIG. 2. mAbs (monoclonal antibodies) reacting with rPAD2 in western blotting. Culture supernatants from mAbs #1-30, an irrelevant mAb (A) and no mAb (B) were tested 1:1 in diluting buffer against 1 μg/mL rabbit PAD2-unreduced. Rabbit anti mouse IgG (diluted 1:1000) was added, 1 h/RT. Development was performed in carbazole staining solution. Molecular weight markers (kDa) are indicated in the middle of the blot with Novex® Sharp Pre stained Protein Standard. A 4-12% Bis-Tris zoom gel was used.
as §1

N343 (from amino acid 343 to the C-terminus), sequence (Q9Y2J8 343-665): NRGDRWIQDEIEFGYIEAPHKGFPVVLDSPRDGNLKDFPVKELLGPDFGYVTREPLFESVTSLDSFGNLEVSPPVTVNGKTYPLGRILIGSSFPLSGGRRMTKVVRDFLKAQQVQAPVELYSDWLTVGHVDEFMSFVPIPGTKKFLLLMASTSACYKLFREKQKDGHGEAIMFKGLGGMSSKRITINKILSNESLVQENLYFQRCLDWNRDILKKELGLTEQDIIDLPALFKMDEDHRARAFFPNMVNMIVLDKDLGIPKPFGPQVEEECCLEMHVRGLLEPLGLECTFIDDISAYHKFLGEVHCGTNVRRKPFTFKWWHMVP
T2 sequence (Q9UM07 whole entry): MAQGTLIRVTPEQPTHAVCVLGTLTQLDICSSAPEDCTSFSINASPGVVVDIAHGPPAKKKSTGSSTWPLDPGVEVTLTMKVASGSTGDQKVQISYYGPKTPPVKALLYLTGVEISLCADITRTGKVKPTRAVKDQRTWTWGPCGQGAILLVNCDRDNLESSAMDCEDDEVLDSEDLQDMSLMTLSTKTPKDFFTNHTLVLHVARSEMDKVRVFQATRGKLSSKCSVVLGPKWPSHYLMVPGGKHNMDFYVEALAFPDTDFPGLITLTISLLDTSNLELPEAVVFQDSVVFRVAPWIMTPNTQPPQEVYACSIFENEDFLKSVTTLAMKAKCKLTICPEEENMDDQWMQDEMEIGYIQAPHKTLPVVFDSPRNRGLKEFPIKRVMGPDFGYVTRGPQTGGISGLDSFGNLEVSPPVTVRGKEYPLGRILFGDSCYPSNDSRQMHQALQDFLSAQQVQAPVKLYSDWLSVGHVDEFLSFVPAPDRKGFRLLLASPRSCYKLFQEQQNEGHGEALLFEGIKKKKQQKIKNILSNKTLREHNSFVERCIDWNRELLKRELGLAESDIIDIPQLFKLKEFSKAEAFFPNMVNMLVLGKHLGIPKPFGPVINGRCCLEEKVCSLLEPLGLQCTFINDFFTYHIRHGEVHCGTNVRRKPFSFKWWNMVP
T1 sequence (Q9Y2J8 165-665): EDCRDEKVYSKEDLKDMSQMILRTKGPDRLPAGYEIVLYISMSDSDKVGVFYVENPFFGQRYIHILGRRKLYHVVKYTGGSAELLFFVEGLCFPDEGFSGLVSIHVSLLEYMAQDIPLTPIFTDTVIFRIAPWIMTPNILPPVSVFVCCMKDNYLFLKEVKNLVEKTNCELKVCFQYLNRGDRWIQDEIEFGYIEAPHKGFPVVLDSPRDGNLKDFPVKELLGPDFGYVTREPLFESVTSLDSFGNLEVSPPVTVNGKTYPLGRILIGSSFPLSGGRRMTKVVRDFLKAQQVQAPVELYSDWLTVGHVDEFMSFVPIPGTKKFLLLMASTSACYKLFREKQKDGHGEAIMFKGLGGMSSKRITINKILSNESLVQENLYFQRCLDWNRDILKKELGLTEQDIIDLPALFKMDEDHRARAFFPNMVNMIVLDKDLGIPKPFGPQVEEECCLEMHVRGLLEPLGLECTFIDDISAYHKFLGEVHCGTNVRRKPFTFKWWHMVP

B1: mAb #2 (antibody, V domains shown)
VH: QVQLQQPGAELVRPGASVKLSCKASGYTFTSYWMNWVKQRPGQGLEWIGMIDPSDSESYYNQMFKDKATLTVDKSSSTAYMQLSRLTSEDSAVYYCARKDYYAYGGAMDYWGQGTSVTVSS
VL: QIVLTQSPAILSASLGEEITLTCSANSSARYMHWYQQKSGTSPKLLIYSTSNLASGVPSRFSGSGSGTFYSLTLSSVEAEDAADYYCHQWSGYPTFGGGTKLEIKR
notes: Mouse IgG monoclonal antibody, unknown subtype; raised against rabbit PAD2
Consider B1, for which the binding result is “no binding” in assay [1], “no binding” in assay [2], “no binding” in assay [3] and “binds” in assay [4].

B2: mAb #6 (antibody, V domains shown)
VH: EVQLQQSGPDLVKPGASVKISCKASGYSFTAYYMHWVKQSHGESLEWIGRVNPNNGGSSYNQKFKGKAILTVHKSSNTAYMELRSLTSEDSAVYFCARGDYLPSLGYWGQGTSVTVSS
VL: DIVMTQSQKFMSTSVGDRVSVTCKASQNVDTTVAWYQQKPGQSPKALIYSASYRYSGVPDRFTGSGSGTDFTLTVTNVQSEDLAEYFCQQYDSYPFTFGSGTKLEIK
notes: as for B1
Consider B2, for which the binding result in assay [2] and in assay [3] was “no binding” throughout.

B3: mAb #34 (antibody, V domains shown)
VH: EVQLQQSGPDLVKPGASVKISCKASGYSFTSYYMHWVKQSHGKSLEWIGRVNPNSGYTTYNQKFKGKAILTVDKSSSTAYMELRSLTSEDSAVYYCARGDYLPSMDYWGHGTSVTVSS
VL: DFVMTQSQKFMSTSVGDRVSITCKASQNVGTNVAWYQQKPGQSPKGLIYSASYRYSGVPDRFTGSGSGTDFTLTISNVQSEDLAEYFCQQFNSYPFTFGSGTKLEIK
notes: as for B1
For B3, the binding result in assay [2] and in assay [3] was “no binding” each time.

For the origin of these results see patent US20150376294A1 (RIGSHOSPITALET, published 2015).
